How the values were obtained:
[1] = target: rHuman CD44/Fc Chimera, CF (R&D Systems Cat#3660-CD) (human) (UniProt P16070); assay: Multispot ECL (MSD), antigen spotted on plate, Fab […]; blank spot 162
[2] = target: rHuman EGF R/Fc Chimera, CF (R&D Systems Cat#344-ER) (human) (UniProt P00533); assay: as above
[3] = target: rHuman ErbB2/Fc Chimera, CF (R&D Systems Cat#1129-ER) (human) (UniProt P04626); assay: as above
[4] = target: rHuman Erythropoietin R/Fc Chimera, CF (R&D Systems Cat#963-ER) (human) (UniProt P19235); assay: as above
Chain of rHuman Erythropoietin R/Fc Chimera, CF (R&D Systems Cat#963-ER) (human) (P19235 25-250, change not shown): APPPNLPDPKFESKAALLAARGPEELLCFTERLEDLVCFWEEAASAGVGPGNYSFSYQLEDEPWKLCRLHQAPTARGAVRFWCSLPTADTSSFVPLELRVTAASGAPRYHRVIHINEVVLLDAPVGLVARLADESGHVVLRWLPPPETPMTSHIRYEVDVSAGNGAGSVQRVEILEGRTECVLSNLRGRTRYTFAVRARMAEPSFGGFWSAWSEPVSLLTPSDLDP

[5] = target: rHuman HGF R/c-MET/Fc Chimera, CF (R&D Systems Cat#358-MT/CF) (human) (UniProt P08581); assay: as above
Chain of rHuman HGF R/c-MET/Fc Chimera, CF (R&D Systems Cat#358-MT/CF) (human) (P08581 25-932, change not shown): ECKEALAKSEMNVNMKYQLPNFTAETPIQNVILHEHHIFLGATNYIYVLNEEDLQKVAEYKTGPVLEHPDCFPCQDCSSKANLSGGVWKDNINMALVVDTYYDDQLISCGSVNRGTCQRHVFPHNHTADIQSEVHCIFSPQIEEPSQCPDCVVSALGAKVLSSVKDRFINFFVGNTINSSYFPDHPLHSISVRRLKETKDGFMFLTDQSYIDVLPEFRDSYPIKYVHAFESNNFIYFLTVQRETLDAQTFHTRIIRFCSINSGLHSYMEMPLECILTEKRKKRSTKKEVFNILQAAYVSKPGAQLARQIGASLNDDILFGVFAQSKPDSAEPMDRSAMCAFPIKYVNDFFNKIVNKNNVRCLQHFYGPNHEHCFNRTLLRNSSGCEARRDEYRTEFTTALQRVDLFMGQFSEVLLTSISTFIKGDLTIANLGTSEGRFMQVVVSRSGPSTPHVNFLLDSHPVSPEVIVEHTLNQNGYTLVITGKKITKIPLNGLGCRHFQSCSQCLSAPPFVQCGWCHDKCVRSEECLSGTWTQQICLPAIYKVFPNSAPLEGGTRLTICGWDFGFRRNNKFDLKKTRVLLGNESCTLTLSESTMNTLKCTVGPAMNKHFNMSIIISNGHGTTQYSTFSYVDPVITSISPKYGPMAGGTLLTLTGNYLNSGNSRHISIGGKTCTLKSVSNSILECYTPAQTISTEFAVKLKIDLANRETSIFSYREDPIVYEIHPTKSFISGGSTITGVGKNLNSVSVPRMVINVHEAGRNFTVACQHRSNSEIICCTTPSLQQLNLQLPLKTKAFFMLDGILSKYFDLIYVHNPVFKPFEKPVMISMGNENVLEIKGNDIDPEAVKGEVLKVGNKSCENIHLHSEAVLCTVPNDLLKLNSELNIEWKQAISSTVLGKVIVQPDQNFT

[6] = target: rHuman IGF-1 sR, (IGF-1 sR), CF (R&D Systems Cat#391-GR) (human) (UniProt P08069); assay: as above
[7] = target: rHuman Notch-1/Fc Chimera, CF (R&D Systems Cat#3647-TK) (human) (UniProt P46531); assay: as above
[8] = target: rHuman P-Cadherin/Fc Chimera, CF (R&D Systems Cat#861-PC) (human) (UniProt P22223); assay: as above
[9] = target: rHuman CD44/Fc Chimera, CF (R&D Systems Cat#3660-CD) (human) (UniProt P16070); assay: Multispot ECL (MSD), antigen spotted on plate, Fab 170 nM; blank spot 262
[10] = target: rHuman EGF R/Fc Chimera, CF (R&D Systems Cat#344-ER) (human) (UniProt P00533); assay: as above
[11] = target: rHuman ErbB2/Fc Chimera, CF (R&D Systems Cat#1129-ER) (human) (UniProt P04626); assay: as above
[12] = target: rHuman Erythropoietin R/Fc Chimera, CF (R&D Systems Cat#963-ER) (human) (UniProt P19235); assay: as above
[13] = target: rHuman HGF R/c-MET/Fc Chimera, CF (R&D Systems Cat#358-MT/CF) (human) (UniProt P08581); assay: as above
[14] = target: rHuman IGF-1 sR, (IGF-1 sR), CF (R&D Systems Cat#391-GR) (human) (UniProt P08069); assay: as above
[15] = target: rHuman Notch-1/Fc Chimera, CF (R&D Systems Cat#3647-TK) (human) (UniProt P46531); assay: as above
[16] = target: rHuman P-Cadherin/Fc Chimera, CF (R&D Systems Cat#861-PC) (human) (UniProt P22223); assay: as above
[17] = target: rHuman CD44/Fc Chimera, CF (R&D Systems Cat#3660-CD) (human) (UniProt P16070); assay: Multispot ECL (MSD), antigen spotted on plate, Fab 340 nM; blank spot 554
[18] = target: rHuman EGF R/Fc Chimera, CF (R&D Systems Cat#344-ER) (human) (UniProt P00533); assay: as above
[19] = target: rHuman ErbB2/Fc Chimera, CF (R&D Systems Cat#1129-ER) (human) (UniProt P04626); assay: as above
[20] = target: rHuman Erythropoietin R/Fc Chimera, CF (R&D Systems Cat#963-ER) (human) (UniProt P19235); assay: as above
[21] = target: rHuman HGF R/c-MET/Fc Chimera, CF (R&D Systems Cat#358-MT/CF) (human) (UniProt P08581); assay: as above
[22] = target: rHuman IGF-1 sR, (IGF-1 sR), CF (R&D Systems Cat#391-GR) (human) (UniProt P08069); assay: as above
[23] = target: rHuman Notch-1/Fc Chimera, CF (R&D Systems Cat#3647-TK) (human) (UniProt P46531); assay: as above
[24] = target: rHuman P-Cadherin/Fc Chimera, CF (R&D Systems Cat#861-PC) (human) (UniProt P22223); assay: as above
[25] = target: rHuman CD44/Fc Chimera, CF (R&D Systems Cat#3660-CD) (human) (UniProt P16070); assay: Multispot ECL (MSD), antigen spotted on plate, Fab 85.0 nM; blank spot 292
[26] = target: rHuman EGF R/Fc Chimera, CF (R&D Systems Cat#344-ER) (human) (UniProt P00533); assay: as above
[27] = target: rHuman ErbB2/Fc Chimera, CF (R&D Systems Cat#1129-ER) (human) (UniProt P04626); assay: as above
[28] = target: rHuman Erythropoietin R/Fc Chimera, CF (R&D Systems Cat#963-ER) (human) (UniProt P19235); assay: as above
[29] = target: rHuman HGF R/c-MET/Fc Chimera, CF (R&D Systems Cat#358-MT/CF) (human) (UniProt P08581); assay: as above
[30] = target: rHuman IGF-1 sR, (IGF-1 sR), CF (R&D Systems Cat#391-GR) (human) (UniProt P08069); assay: as above
[31] = target: rHuman Notch-1/Fc Chimera, CF (R&D Systems Cat#3647-TK) (human) (UniProt P46531); assay: as above
[32] = target: rHuman P-Cadherin/Fc Chimera, CF (R&D Systems Cat#861-PC) (human) (UniProt P22223); assay: as above

ECL signal [1]: 522 | ECL signal [2]: 528 | ECL signal [3]: 866 | ECL signal [4]: 494 | ECL signal [5]: 607 | ECL signal [6]: 646 | ECL signal [7]: 649 | ECL signal [8]: 421 | ECL signal [9]: 660 | ECL signal [10]: 826 | ECL signal [11]: 964 | ECL signal [12]: 790 | ECL signal [13]: 757 | ECL signal [14]: 832 | ECL signal [15]: 816 | ECL signal [16]: 744 | ECL signal [17]: 959 | ECL signal [18]: 1210 | ECL signal [19]: 1230 | ECL signal [20]: 1260 | ECL signal [21]: 1240 | ECL signal [22]: 1040 | ECL signal [23]: 1210 | ECL signal [24]: 1160 | ECL signal [25]: 693 | ECL signal [26]: 1000 | ECL signal [27]: 844 | ECL signal [28]: 817 | ECL signal [29]: 998 | ECL signal [30]: 891 | ECL signal [31]: 780 | ECL signal [32]: 709
B1: Fab VH4-34_IGHD7-27*01_IGHJ4*01 & V4-6_IGLJ4*01 (Fab, V domains shown)
VH: QVQLQQWGAGLLKPSETLSLTCAVYGGSFSGYYWSWIRQPPGKGLEWIGEINHSGSTNYNPSLKSRVTISVDTSKNQFSLKLSSVTAADTAVYYCARANWGDYFDYWGQGTLVTVSS
VL: RPVLTQPPSLSASPGATARLPCTLSSDLSVGGKNMFWYQQKPGSSPRLFLYHYSDSDKQLGPGVPSRVSGSKETSSNTAFLLISGLQPEDEADYYCQVYESSANFVFGGGTQLIIL

— patent US20120316071A1
